Common to all, as to assay: SPR
The target of assay [1] is HIR-1 ectodomain (purified) (C. elegans) (UniProt O76385).
The target of assay [2] is ZIG-5 (purified, SPR) (C. elegans) (UniProt Q9XXD7).
The target in assay [3] is ZIG-4 (purified, SPR) (C. elegans) (UniProt G5ECB1).
The target of assay [4] is T1, ZIG-5 (purified, SPR) (C. elegans, UniProt Q9XXD7 26-260).
T1 sequence: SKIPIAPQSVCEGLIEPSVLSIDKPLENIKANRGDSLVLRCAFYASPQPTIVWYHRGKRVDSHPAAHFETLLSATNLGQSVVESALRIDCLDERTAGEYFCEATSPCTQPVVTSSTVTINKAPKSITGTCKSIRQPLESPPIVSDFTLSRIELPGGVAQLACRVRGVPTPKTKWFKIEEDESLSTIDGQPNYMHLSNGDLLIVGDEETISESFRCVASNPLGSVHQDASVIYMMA

Assay [5] concerns the target T2, ZIG-4 (purified, SPR) (C. elegans, UniProt G5ECB1 17-253).
T2 sequence: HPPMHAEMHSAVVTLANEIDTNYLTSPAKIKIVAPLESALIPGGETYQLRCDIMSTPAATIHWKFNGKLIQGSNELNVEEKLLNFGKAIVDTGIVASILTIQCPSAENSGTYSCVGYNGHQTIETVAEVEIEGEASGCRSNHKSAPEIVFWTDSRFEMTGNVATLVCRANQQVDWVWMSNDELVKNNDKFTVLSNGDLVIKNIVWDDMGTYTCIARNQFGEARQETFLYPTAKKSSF

Assay [6] addresses NRX-1 LNS6 domain (purified) (C. elegans).

The molecule “B0222.11 (purified) (from UniProt Q4PIU5) (ligand)” came in with a dissociation constant (Kd) in assay [1] of 0.5 nM.

As to INS-1 (purified, SPR) (ligand), the Kd in assay [2] is 3 nM; in assay [3], over 1000 nM.

B1: INS-6 (purified, SPR) (ligand)
chain: VPAPGETRACGRKLISLVMAVCGDLCNPQEGKDIATECCGNQCSDDYIRSACCP
Regarding B1, the results for the dissociation constant (Kd) in assay [4] and in assay [5] were over 1000 nM and 0.056 nM, respectively.

B2: NLG-1 ectodomain (purified) (receptor)
chain: YDVRSVTTSWGMVRGEVVSPEGDDLPPVAQYLGIPYGVAPTGQYRFNMAISAAKWTHMPKDARKVSPVCIQTDMPELSETKAFKHTSAQRFDFNHRLLPHLKKQSEDCLYMNIYVPERLEISRDNYLPVMVIVHGEEYGWGTGNAFNGTTLAAYGHIIVVTLNYRLGVFGFLGRCESSSCSGNSGISDLVSALTMLNVILPSFGGDSKSVTLAGWGSGASLVSLLMASPLTQPGRRLFRRAILLDGSALSPWAISQNPQQYFMQLAEELACAPKNRTSSFNDNVDTIVRCMQVHSSENITKAVLKIDVPTFLSGFAPIVDGQLIPNKPQVSFSTQYGSLFREIDLLVGISSNPSHHMISNEDLKVGISKEKRMRIFRSLVRNLYDFHREEILASIINEYTDWENPRDHPKSIRNGVLNALSDVLYTAPLIETLRSHSADEVRKEANTFMFAFAHETRSWSQEQPNSGIRGSLSGDIVPYIFGYPLAQGDSEERLYSGFNTDDKGISKVMMHYVSNFVKSGDPSKPNPMSKNFPMGDVFHSTAWPQFDQPNREAYLEITDRPRVKNYYRNAQVGFWNNFIPQLHKNGKETEPVGEEHHLLSDHFRKDSYFGKTRHFSSYANLPFPPPPMPPSPPPELTTKPKPSESPTTLQTTTESEKAAAGSFTGKAL
As for B2, the Kd in assay [6] was 48000 nM.

These data come from PMC11257444 (bioRxiv, 2024).
